Test results from US20240409645A1.

T1: mouse IL-2Rα (mouse) (UniProt P01590)
T1 sequence (looked up): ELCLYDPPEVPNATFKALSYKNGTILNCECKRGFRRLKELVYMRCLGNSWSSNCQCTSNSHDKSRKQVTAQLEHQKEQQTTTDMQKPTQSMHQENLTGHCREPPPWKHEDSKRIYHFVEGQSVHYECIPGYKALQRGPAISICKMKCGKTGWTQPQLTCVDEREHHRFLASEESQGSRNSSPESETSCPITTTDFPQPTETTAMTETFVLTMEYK

T2: mouse IL-2Rβ (mouse) (UniProt P16297)
T2 sequence (looked up): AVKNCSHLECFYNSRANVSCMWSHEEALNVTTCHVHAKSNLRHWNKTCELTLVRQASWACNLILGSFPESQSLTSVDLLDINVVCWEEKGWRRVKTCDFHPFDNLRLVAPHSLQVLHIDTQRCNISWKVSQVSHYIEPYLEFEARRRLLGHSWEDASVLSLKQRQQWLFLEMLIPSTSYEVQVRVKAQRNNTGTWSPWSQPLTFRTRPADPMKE

T3: human interleukin-2 receptor β-chain (IL-2Rβ; CD122), recombinant protein (human) (UniProt P14784)
T3 sequence: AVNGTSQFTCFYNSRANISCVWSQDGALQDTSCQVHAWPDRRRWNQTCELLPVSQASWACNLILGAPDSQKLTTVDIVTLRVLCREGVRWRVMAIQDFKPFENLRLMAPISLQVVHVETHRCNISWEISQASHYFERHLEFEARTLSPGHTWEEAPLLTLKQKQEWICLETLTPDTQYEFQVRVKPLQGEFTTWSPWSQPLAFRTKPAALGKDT


Tests used:
[1] = molecular target: cynomolgus monkey IL-2Rα/CD25 subunit (cynomolgus monkey) (UniProt H6WS54); assay: ELISA, monovalent; EC50 cyno vs human subunit
cynomolgus monkey IL-2Rα/CD25 subunit (cynomolgus monkey), sequence (H6WS54 entry or part of it): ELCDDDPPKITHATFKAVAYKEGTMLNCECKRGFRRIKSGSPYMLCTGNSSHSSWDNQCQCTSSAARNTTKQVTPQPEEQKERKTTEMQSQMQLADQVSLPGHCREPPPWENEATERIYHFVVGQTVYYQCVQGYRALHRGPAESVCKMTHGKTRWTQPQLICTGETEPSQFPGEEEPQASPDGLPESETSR

[2] = molecular target: human interleukin-2 receptor α-chain (IL-2Rα; CD25), recombinant protein (human) (UniProt P01589); assay: ELISA, monovalent VHH-hFc
human interleukin-2 receptor α-chain (IL-2Rα; CD25), recombinant protein (human), sequence (P01589 22-240 limits assumed): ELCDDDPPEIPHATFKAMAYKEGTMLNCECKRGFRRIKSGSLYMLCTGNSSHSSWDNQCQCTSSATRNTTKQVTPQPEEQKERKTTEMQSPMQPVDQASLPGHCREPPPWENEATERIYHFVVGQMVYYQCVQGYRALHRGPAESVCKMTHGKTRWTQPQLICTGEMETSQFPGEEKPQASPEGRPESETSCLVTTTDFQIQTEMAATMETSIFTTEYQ

[3] = molecular target: cynomolgus monkey IL-2Rα/CD25 subunit (cynomolgus monkey) (UniProt H6WS54); assay: ELISA, monovalent VHH-hFc
[4] = molecular target: T1, mouse IL-2Rα (mouse); assay: ELISA, P.E. on coated antigen
[5] = molecular target: T2, mouse IL-2Rβ (mouse); assay: P.E. binding ELISA
[6] = molecular target: T3, human interleukin-2 receptor β-chain (IL-2Rβ; CD122), recombinant protein (human); assay: ELISA, monovalent VHH-hFc

Fold change [1] [fold] | EC50 [2] [nM] | EC50 [3] [nM] | Binder | further results
1 | 0.478 | 0.498 | 1-MP01H01 VHH-hFc, monospecific monovalent (Fc fusion, part only; not given: Both Fc arms and linker, not shown: another chain or arm of the molecule; a dimerising Fc or GST; small tags and cut ends) VHH: EVQLVESGGGLVQAGGSLRLSCAASGRTFRTHNMGWFRRAPGKEREFVAAISWNVDNTLYADSVKGRFTISRDNGRNMVYLQMNSLKPEDTAVYYCAADNIPLSSDVAATATEYDYWGQGTQVTVSS | 
1 | 0.077 | 0.074 | 4-MP01F04 VHH-hFc, monospecific monovalent (Fc fusion, part only; not given: Fc arms with stated mutations, not shown: another chain or arm of the molecule; a dimerising Fc or GST; small tags and cut ends) VHH: QVQLVESGGGLVQAGGSLRLSCAASGGTFRTRNMGWFRRAPGKEREFVAAVSWNVDNKLYADSVKGRFTISRDNGRNMVYLQMNSLKPEDTAVYYCAADNIPLSSDMRPTATEYDYWGQGTQVTVSS | 
 |  |  | FJ1427_P035MP01H11 (VHH) VHH: QVQLVESGGGLVQAGGSLRLSCAASGRTFRTHNMGWFRRAPGKEREFVAAISWNVDNTLYADSVKGRFTISRDNDRNMVYLQMNSLKPEDTAVYFCAADNIPLSSDVRATATEFGYWGQGTRVTVSS | OD (PE binding ELISA) [4]: 0.047 OD450 nm
13.4 | 0.086 | 1.15 | 3-MP01E03 VHH-hFc, monospecific monovalent (Fc fusion, part only; not given: Both Fc arms and linker, not shown: another chain or arm of the molecule; a dimerising Fc or GST; small tags and cut ends) VHH: QVQLVESGGGLVQAGGSLRLSCTASGRTLSSYSMAWFRQAADKGREFVTAISSSGVVTHVLDSVKGRFTISRDNAKNTVYLQMNSLQPEDTALYFCAGTASSYSTYEANYNYWGQGTLVTVSS | 
 |  |  | 17-MP02C09 VHH (periplasmic extract) (VHH) VHH: QVQLQESGGGLVQAGGSLRLSCVASGSVSSINGMAWYRQGADNQRVLVAAISRVGNTAYGDSVKGRFTISRQNARNTVYLQMNSLKPEDTAVYYCNADSWGGDDYWGQGTQVTVSS | OD450 nm [5]: 0.047 OD450 nm
3.3 | 0.378 | 1.25 | 11-MP05H04 VHH-hFc, monospecific monovalent (Fc fusion, part only; not given: Both Fc arms and linker, not shown: another chain or arm of the molecule; a dimerising Fc or GST; small tags and cut ends) VHH: QLQLVESGGGLVQAGGSLRLSCAASGLTFEGYAIGWFRQAPGKEREGVSYITGSDGTTYYINSVKGRFTISSDNAKSTVYLQMNTLKPEDTAVYYCAVDRLGSQGRYASAWWRSGDMDLWGKGTQVTVSS | 
 |  |  | FJ1427_P035MP01G10 (VHH) VHH: EVQLVESGGGLVQAGGSLRLSCAASGGAFSRYAVGWFRMAPGKGREFVSAIDLSGTNTHVLDSVKGRFTISRDNDKNTAYLQMDKLQPEDTAVYWCAATSSSYSDYEANYNIWGQGTQVTVSS | OD (PE binding ELISA) [4]: 0.046 OD450 nm
 |  |  | FJ1427_P035MP01A11 (VHH) VHH: QVQLVESGGGLVQPGGSLRLSCAASGRTFETHNMGWFRRAPGKEREFVAVISWNVDSTEYTDSVKGRFTISRDNDKNMVYLQMNSLKPEDTGVYYCAADNIPLSSDMSPTAAEYGYWGQGTQVTVSS | OD (PE binding ELISA) [4]: 0.046 OD450 nm
1.5 | 0.088 | 0.136 | 5-MP01F05 VHH-hFc, monospecific monovalent (Fc fusion, part only; not given: Both Fc arms and linker, not shown: another chain or arm of the molecule; a dimerising Fc or GST; small tags and cut ends) VHH: EVQLVESGGGLVQAGGSLRLSCAASIRAFTTWSMAWFRQAPGKEREYVARINVSGSVTYYADFVKGRFTISRDNAKKTMYLEMNNLKPEDTALYYCAADRTGVGTNDYNYWGQGTQVTVSS | 
 |  |  | 15-MP02E06 VHH-hFc, monospecific monovalent (Fc fusion, part only; not given: Both Fc arms and linker, not shown: another chain or arm of the molecule; a dimerising Fc or GST; small tags and cut ends) VHH: QVQLVESGGGSVQPGGSLRLSCAASGFTFSNYAMSWVRQAPGKGLEWVASITGFGRGTDYADSVKGRFTISRDNAEDTLYLQMNSLKPEDTAVYYCAKYSSSTYYPPTPARGRDYRGQGTQVTVSS | EC50 [6]: 0.64 nM
 |  |  | FJ1427_P035MP01D11 (VHH) VHH: QLQLVESGGGLVQAGDSLRLSCAASGRSFRNYIMAWYRQAPGKEREFLAAISWLDGTLYADSVEDRFTISRDNPKNTVHLQMDSLKPEDTAVYYCAADRGPVRPVLAPDVDYWGQGTQVTVSS | OD (PE binding ELISA) [4]: 0.045 OD450 nm
 |  |  | FJ1427_P035MP01B12 (VHH) VHH: QVQLQESGGGLVQAGDSLRLSCAASGRSFRNYILAWYRQAPGKEREFLAAISWLDGTFYANSVEGRFTISRDNPKNTVHLQMDGLKPEDTAVYYCAADRGPVRPVLAPDVDYWGQGTQVTVAS | OD (PE binding ELISA) [4]: 0.046 OD450 nm
 |  |  | FJ1427_P035MP01F11 (VHH) VHH: QVQLQESGGGLVQAGDSLRLSCAASGRSFRNYILAWYRQAPGKEREFLAAISWLDGTLYADSVEDRFTISRDNPKNTVHLQMDSLKPEDTAVYYCAADRGPVRPVLAPDVDYWGQGTQVTVSS | OD (PE binding ELISA) [4]: 0.047 OD450 nm
 |  |  | 16-MP02B08 VHH (periplasmic extract) (VHH) VHH: EVQLVESGGGLVQAGGSLRLSCAASGRAIENYPVGWFRQAPGKEREFVAAITWISGSTLYADSVKGRFTISRDNAKNTVYLQMSSLKPEDTALYYCAAALKTITRGQNDYSYWGQGTQVTVSS | OD450 nm [5]: 0.048 OD450 nm
1.2 | 0.27 | 0.317 | 6-MP01G05 VHH-hFc, monospecific monovalent (Fc fusion, part only; not given: Both Fc arms and linker, not shown: another chain or arm of the molecule; a dimerising Fc or GST; small tags and cut ends) VHH: QVQLQESGGGLVQAGGSLRLSCAASGRTFSSYAMGWFRQAPGKEREFVAVISWNVDNTEYTDSVKGRFTISRDNDKNMVYLQMNSLKPEDTAVYYCAADSIPLSSDMSPTATEYGYWGQGTQVTVSS | 
 |  |  | 20-MP03F10 VHH-hFc, monospecific monovalent (Fc fusion, part only; not given: Both Fc arms and linker, not shown: another chain or arm of the molecule; a dimerising Fc or GST; large carriers; small tags and cut ends) VHH: EVQLVESGGGLVQAGGSLRLSCAASGRDFSSYAMGWFRQAPGKEREFVVAITWTKRSTDFPDSVKGRFTISRDNAKNTVYLDMNSLKPEDTAVYYCASARGLPVTPLGDIIYWGEGTLVTVSS | EC50 [6]: 0.197 nM
 |  |  | 20-MP03F10 VHH (periplasmic extract) (VHH) VHH: EVQLVESGGGLVQAGGSLRLSCAASGRDFSSYAMGWFRQAPGKEREFVVAITWTKRSTDFPDSVKGRFTISRDNAKNTVYLDMNSLKPEDTAVYYCASARGLPVTPLGDIIYWGEGTLVTVSS | OD450 nm [5]: 0.048 OD450 nm
 |  |  | FJ1427_P035MP01H10 (VHH) VHH: QVQLVESGGGLVETGGSLRLSCAASGITFNDHTMAWFRQAPGKEREFVAARDWSDIITRYASSVKGRFTISRDNAGNTGFLQMNSLRPEDTAVYYCAAREGGVVAGVRSGAPYDYWGQGTQVTVSS | OD (PE binding ELISA) [4]: 0.057 OD450 nm
 |  |  | 19-MP03F08 VHH (periplasmic extract) (VHH) VHH: EVQLVESGGGLVQTGGSLRLSCAASGGTFSRDAMAWFRQVPGKEREFVALISWSGATTNYADSVKGRFAISRDNGKNTVYLQMNRLKPADTAIYYCAADRRPMGSRSYFEPTEYDDWGQGTQVTVSS | OD450 nm [5]: 0.049 OD450 nm
 |  |  | 18-MP03C03 VHH-hFc, monospecific monovalent (Fc fusion, part only; not given: Both Fc arms and linker, not shown: another chain or arm of the molecule; a dimerising Fc or GST; large carriers; small tags and cut ends) VHH: QVQLVESGGGLVQPGGSLRLSCAISGGTLDSYGIGWVRQAPGKQREGVSCMSRSDDRTYYADSVKGRFTISKDSAKNTVYLQMTSLKPEDTAVYYCAAVDAYGCSLVQPTTYDFWGLGTQVTVSS | EC50 [6]: 0.373 nM
1 | 0.078 | 0.074 | 9-MP05G01 VHH-hFc, monospecific monovalent (Fc fusion, part only; not given: Both Fc arms and linker, not shown: another chain or arm of the molecule; a dimerising Fc or GST; small tags and cut ends) VHH: EVQLVESGGGLVQAGGSLRLSCAASGGSIYTYNMGWFRQAPGKEREFVAGTLWSGGDSVYADFAKGRFTLSRENAKNTLYLQMNSLKPEDTATYYCAIDPLSLTSDWRVDELSSWGKGTLVTVSS | 
8.5 | 0.13 | 1.1 | 12-MP05B12 VHH-hFc, monospecific monovalent (Fc fusion, part only; not given: Both Fc arms and linker, not shown: another chain or arm of the molecule; a dimerising Fc or GST; small tags and cut ends) VHH: QVQLVESGGGLVQAGGSLRLSCAASGFTFDGYAIGWFRQAPGKEREGVSYITGSDGSTYYADSVKGRFTISSNNAKNTVYLHMNSLKPDDAAVYYCAIDRLGSRGAYVPIWWRSSDMDLWGKGTLVTVSS | 
1.3 | 0.074 | 0.096 | 2-MP01A02 VHH-hFc, monospecific monovalent (Fc fusion, part only; not given: Both Fc arms and linker, not shown: another chain or arm of the molecule; a dimerising Fc or GST; small tags and cut ends) VHH: QVQLVESGGGLVQPGGSLRLSCATSGFTFRNNFMSWVRQAPGKGLEWVSTISYGGESTTYAESVKGRFTISRDNAKNTLYLQMNNLKPEDTAVYYCAKATSYDSIRSGSRGQGTQVTVSS | 
 |  |  | FJ1427_P035MP01E11 (VHH) VHH: QVQLVESGGGLVQPGGSLRLSCAASGFTFSNNFMSWVRQAPGKGLEWVSTISYFGDSTRYAESVKGRFTISRDNEKNTLYLQMNNLKPEDTAVYYCAKATSYDSIRSGSRGRGTQVTVSS | OD (PE binding ELISA) [4]: 0.046 OD450 nm
1.1 | 0.065 | 0.069 | 8-MP01C12 VHH-hFc, monospecific monovalent (Fc fusion, part only; not given: Both Fc arms and linker, not shown: another chain or arm of the molecule; a dimerising Fc or GST; small tags and cut ends) VHH: QVQLVESGGGLVQPGGSLRLSCATSGFTFSNNFMSWVRQAPGKGLEFVSTISYGGESTTYAEAVKGRFTISRDNAKNTLYLQMNNLKPEDTAIYYCAKATSYTSIRGAPRGQGTQVTVSS | 
0.8 | 0.173 | 0.133 | 7-MP01G08 VHH-hFc, monospecific monovalent (Fc fusion, part only; not given: Both Fc arms and linker, not shown: another chain or arm of the molecule; a dimerising Fc or GST; small tags and cut ends) VHH: EVQLVESGGGLVQAGGSLRLSCAASGRAFSMYNMGWFRQAPGKEREFVAATGWSGANTPYADSVKGRFTISRDNTQNTVYLQMNSLKPEDTATYYCAADSIRLRSDVTRIPLEYDYWGQGTQVTVSS | 
0.9 | 0.105 | 0.098 | 10-MP05F03 VHH-hFc, monospecific monovalent (Fc fusion, part only; not given: Both Fc arms and linker, not shown: another chain or arm of the molecule; a dimerising Fc or GST; small tags and cut ends) VHH: QVQLVESGGGLVQAGGSLRLSCAASGIPFDNYAMGWFRQAPGKEREFVAARDLEGIITRYGDSVKGRFTISRGNAKNTVFLQMNSLKPEDTAVYYCAARDGGVVAGSRSSAQYNYWGQGTQVTVSS | 
